Reference: article PMC3413214, “Structural and biochemical characterization of a trapped coenzyme A adduct of Caenorhabditis elegans glucosamine-6-phosphate N-acetyltransferase 1” (Acta Crystallographica Section D: Biological Crystallography, 2012)

Tests used:
[1] = biological target: the molecule itself; assay: SEC; Superdex 75 26/60 gel-filtration column in buffer A (25 mM Tris-HCl pH 7.5, 250 mM NaCl, 2 mM EDTA); elution profile
[2] = biological target: the molecule itself; assay: crystal structure; sitting-drop vapour diffusion, 0.1 M Tris-HCl pH 8.5, 0.2 M sodium acetate, 30% PEG 3350, 11 mM BaCl2, 293 K; orthorhombic P2_1 2_1 2_1 form (1.75 Å, CoA and GlcNAc-6P bound) and hexagonal P6_1 form (1.55 Å, Cys141-CoA adduct); two subunits A and B in each

B1: Caenorhabditis elegans glucosamine-6-phosphate N-acetyltransferase 1 (enzyme, UniProt Q17427 1-165, looked up)
chain: MSHIFDASVLAPHIPSNLPDNFKVRPLAKDDFSKGYVDLLSQLTSVGNLDQEAFEKRFEAMRTSVPNYHIVVIEDSNSQKVVASASLVVEMKFIHGAGSRGRVEDVVVDTEMRRQKLGAVLLKTLVSLGKSLGVYKISLECVPELLPFYSQFGFQDDCNFMTQRF
notes: glucosamine-6-phosphate N-acetyltransferase 1 (GNA1) of Caenorhabditis elegans, full length, 165 amino acids per monomer; amplified from C. elegans cosmid B0024 DNA; Cloned into pGEX-6P-1 by BamHI and EcoRI; a few vector residues probably remain at the N-terminus after PreScission cleavage (surmised); In the orthorhombic crystal it holds CoA and GlcNAc-6P non-covalently; also called CeGNA1; GNA1; …
[1]
  stoichiometry N: 2

B2: CeGNA1–Cys–CoA adduct (enzyme, Caenorhabditis elegans, UniProt Q17427 1-165, looked up)
chain: B1 chain
modifications: Cys141 linked by a disulfide to coenzyme A
notes: glucosamine-6-phosphate N-acetyltransferase 1 (GNA1) of Caenorhabditis elegans, full length, 165 amino acids per monomer; same construct as m1; Same polypeptide as m1; differs only by the covalent CoA on Cys141, which DTT releases; also called CeGNA1–CoA adduct; covalent CoA complex; source: E. coli BL21 (DE3) pLysS, purified; adduct formed in the hexagonal (P6_1) crystals grown with acetyl-CoA, …
[2]
  binding result: binds
